A value given as a limit tells only on which side of the number the result lay.

Consider three molecules from US20260109758A1 (BIOSION, published 2026).

The target of assay [1] is T1, recombinant human TSLP-his (human, UniProt Q969D9 29-159, biotin-labeled in the ELISAs).
T1 construct: In-house made; not shown: His tag at the C-terminus
The assay is described as follows: SPR Biacore; TSLP-his amine-coupled to CM5 chip, antibody as analyte; 1:1 Langmuir fit. How it is done:
Un-reacted moieties on the biosensor surface were blocked with ethanolamine. Then, serially diluted purified bispecific antibodies and the controls (2-fold serial dilution in HBS-EP⁺ buffer starting at 100 nM) were respectively flowed onto the chip at a flow rate of 30 μL/min. The antigen-antibody association kinetics was followed for 4 minutes and the dissociation kinetics was followed for 13 minutes.

The target of assay [2] is T2, recombinant human IL4Rα-his (human, UniProt P24394 26-231, limits assumed, biotin-labeled in the capture ELISA).
T2 construct: In-house made; not shown: His tag at the C-terminus
Put plainly: SPR Biacore T200; antibody captured on anti-human IgG CM5 chip, IL4Rα-his as analyte; 1:1 Langmuir fit. The method in brief: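 Antibodies captured on anti-human IgG CM5 chip (bispecifics at 66.67 nM, controls 10 μg/mL), then serially diluted recombinant human IL4Rα-his (C-terminal His tag) in HBS EP flowed at 30 μL/min. Association and dissociation curves fit to 1:1 Langmuir model.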

Assay [3] addresses T2, recombinant human IL4Rα-his. Put plainly: dual-binding ELISA: coated human IL4Rα-his, antibody titrated, detection with biotin human TSLP-his and SA-HRP; signal needs both antigens bound. How it is done: For the dual-binding ELISA, 96-well ELISA plates were firstly coated with 100 μL 1 μg/mL human IL4Rα-his protein (IL4Rα of SEQ ID NO: 33 with His tag at C terminus, prepared in-house) in PBS overnight at 4° C. ELISA plates were washed 4 times with wash buffer (PBS+0.05% Tween-20, PBST) and then blocked with 200 μL/well blocking buffer (5% w/v non-fatty milk in PBST) for 2 hours at 37° C. […] ELISA plates were washed again and incubated with SA-HRP (100 μl/well) for 40 minutes at 37° C. After the final wash, 100 μL/well TMB (Innoreagents) was added. The reaction was stopped 15 minutes later at room temperature with 50 μL/well 1M H₂SO₄, and the absorbance was read on a microplate reader using dual wavelength mode with 450 nm for TMB and 630 nm as the reference wavelength. The OD (450-630) values were plotted against antibody concentration. Data was analyzed using Graphpad Prism and EC₅₀ values were reported.

B1: BSI-502-005 (bispecific antibody, human IgG1, kappa)
heavy: QVQLVQSGAEVKKPGASVKVSCKASGYTFTTYWMHWVRQAPGQGLEWMGVIDPSDSDTTYNQKFKGRVTMTRDTSTSTVYMELSSLRSEDTAVYYCTRSLDGYYDYWGQGTLVTVSSASTKGPSVFPLAPSSKSTSGGTAALGCLVKDYFPEPVTVSWNSGALTSGVHTFPAVLQSSGLYSLSSVVTVPSSSLGTQTYICNVNHKPSNTKVDKKVEPKSCDKTHTCPPCPAPEAQGGPSVFLFPPKPKDTLYITREPEVTCVVVDVSHEDPEVKFNWYVDGVEVHNAKTKPREEQYNSTYRVVSVLTVLHQDWLNGKEYKCQVSNKALPAPIEKTISKAKGQPREPQVYTLPPSRDELTKNQVSLTCLVKGFYPSDIAVEWESNGQPENNYKTTPPVLDSDGSFFLYSKLTVDKSRWQQGNVFSCSVMHEALHNHYTQKSLSLSPGKGGGGSGGGGSEVQLVESGGGLVQPGGSLRLSCAASGFTFSTYGMSWVRQAPGKGLVWVATINSNGGSTSYPDSVKGRFTISRDNAKNTLYLQMNSLRAEDTAVYYCARFFRFRNAMDYWGQGTLVTVSSGGGGSGGGGSGGGGSGGGGSDIQMTQSPSSLSASVGDRVTITCRTSENIYSYLAWYQQKPGKAPKFLVYNAKTLAEGVPSRFSGSGSGTDFTLTISSLQPEDFATYYCQHYYGPPTWTFGQGTKVEIK
light: DIQMTQSPSSLSASVGDRVTITCRPTENIYSYLAWYQQKPGKAPKLLIYFARTLAEGVPSRFSGSGSGTDFTLTISSLQPEDFATYYCQHHYGTPWTFGGGTKVEIKRTVAAPSVFIFPPSDEQLKSGTASVVCLLNNFYPREAKVQWKVDNALQSGNSQESVTEQDSKDSTYSLSSTLTLSKADYEKHKVYACEVTHQGLSSPVTKSFNRGEC
notes: hu1C5F12E9-V8 IgG with an anti-IL4R scFv (VH-VL) at the C-terminus of the heavy chain; AQQ and YTE already stand in the entry
For the molecule B1, in assay [1], the Kd is under 14.5 pM, the off-rate (koff) was under 1e-05 s⁻¹ and the kon worked out at 692000 M⁻¹ s⁻¹. Besides, in assay [2], the Kd came out at 2930 pM, the koff was determined as 0.000161 s⁻¹ and the kon was 54900 M⁻¹ s⁻¹. In addition, the EC50 in assay [3] was found to be 77.9 pM.

B2: BSI-502-007 (bispecific antibody, human IgG1, kappa)
heavy: QVQLVQSGAEVKKPGASVKVSCKASGYTFTTYWMHWVRQAPGQGLEWMGVIDPSDSDTTYNQKFKGRVTMTRDTSTSTVYMELSSLRSEDTAVYYCTRSLDGYYDYWGQGTLVTVSSGGGGSGGGGSGGGGSGGGGSDIQMTQSPSSLSASVGDRVTITCRPTENIYSYLAWYQQKPGKAPKLLIYFARTLAEGVPSRFSGSGSGTDFTLTISSLQPEDFATYYCQHHYGTPWTFGGGTKVEIKGGGGSGGGGSEVQLVESGGGLVQPGGSLRLSCAASGFTFSTYGMSWVRQAPGKGLVWVATINSNGGSTSYPDSVKGRFTISRDNAKNTLYLQMNSLRAEDTAVYYCARFFRFRNAMDYWGQGTLVTVSSASTKGPSVFPLAPSSKSTSGGTAALGCLVKDYFPEPVTVSWNSGALTSGVHTFPAVLQSSGLYSLSSVVTVPSSSLGTQTYICNVNHKPSNTKVDKKVEPKSCDKTHTCPPCPAPEAQGGPSVFLFPPKPKDTLYITREPEVTCVVVDVSHEDPEVKFNWYVDGVEVHNAKTKPREEQYNSTYRVVSVLTVLHQDWLNGKEYKCQVSNKALPAPIEKTISKAKGQPREPQVYTLPPSRDELTKNQVSLTCLVKGFYPSDIAVEWESNGQPENNYKTTPPVLDSDGSFFLYSKLTVDKSRWQQGNVFSCSVMHEALHNHYTQKSLSLSPG
light: DIQMTQSPSSLSASVGDRVTITCRTSENIYSYLAWYQQKPGKAPKFLVYNAKTLAEGVPSRFSGSGSGTDFTLTISSLQPEDFATYYCQHYYGPPTWTFGQGTKVEIKRTVAAPSVFIFPPSDEQLKSGTASVVCLLNNFYPREAKVQWKVDNALQSGNSQESVTEQDSKDSTYSLSSTLTLSKADYEKHKVYACEVTHQGLSSPVTKSFNRGEC
notes: huC2C1A1A1-V15 IgG with an anti-TSLP scFv (VH-VL) at the N-terminus of the heavy chain; AQQ and YTE already stand in the entry
On to B2, for which, in assay [1], the Kd worked out at 8.4 pM, the koff turned out to be 3.87e-06 s⁻¹ and the on-rate (kon) came to 460000 M⁻¹ s⁻¹. For the same molecule, in assay [2], the Kd was found to be 2220 pM, the koff is 0.000399 s⁻¹ and the kon came out at 180000 M⁻¹ s⁻¹. Moreover, the EC50 in assay [3] came out at 94.4 pM.

B3: BSI-502-008 (bispecific antibody, human IgG1, kappa)
heavy: DIQMTQSPSSLSASVGDRVTITCRPTENIYSYLAWYQQKPGKAPKLLIYFARTLAEGVPSRFSGSGSGTDFTLTISSLQPEDFATYYCQHHYGTPWTFGGGTKVEIKGGGGSGGGGSGGGGSGGGGSQVQLVQSGAEVKKPGASVKVSCKASGYTFTTYWMHWVRQAPGQGLEWMGVIDPSDSDTTYNQKFKGRVTMTRDTSTSTVYMELSSLRSEDTAVYYCTRSLDGYYDYWGQGTLVTVSSGGGGSGGGGSEVQLVESGGGLVQPGGSLRLSCAASGFTFSTYGMSWVRQAPGKGLVWVATINSNGGSTSYPDSVKGRFTISRDNAKNTLYLQMNSLRAEDTAVYYCARFFRFRNAMDYWGQGTLVTVSSASTKGPSVFPLAPSSKSTSGGTAALGCLVKDYFPEPVTVSWNSGALTSGVHTFPAVLQSSGLYSLSSVVTVPSSSLGTQTYICNVNHKPSNTKVDKKVEPKSCDKTHTCPPCPAPEAQGGPSVFLFPPKPKDTLYITREPEVTCVVVDVSHEDPEVKFNWYVDGVEVHNAKTKPREEQYNSTYRVVSVLTVLHQDWLNGKEYKCQVSNKALPAPIEKTISKAKGQPREPQVYTLPPSRDELTKNQVSLTCLVKGFYPSDIAVEWESNGQPENNYKTTPPVLDSDGSFFLYSKLTVDKSRWQQGNVFSCSVMHEALHNHYTQKSLSLSPG
light: DIQMTQSPSSLSASVGDRVTITCRTSENIYSYLAWYQQKPGKAPKFLVYNAKTLAEGVPSRFSGSGSGTDFTLTISSLQPEDFATYYCQHYYGPPTWTFGQGTKVEIKRTVAAPSVFIFPPSDEQLKSGTASVVCLLNNFYPREAKVQWKVDNALQSGNSQESVTEQDSKDSTYSLSSTLTLSKADYEKHKVYACEVTHQGLSSPVTKSFNRGEC
notes: huC2C1A1A1-V15 IgG with an anti-TSLP scFv (VL-VH) at the N-terminus of the heavy chain; AQQ and YTE already stand in the entry
For the molecule B3, in assay [1], the Kd came to 7.58 pM, the koff came to 4.43e-06 s⁻¹ and the kon was found to be 585000 M⁻¹ s⁻¹. Besides, in assay [2], the Kd worked out at 3150 pM, the koff stood at 0.000436 s⁻¹ and the kon turned out to be 138000 M⁻¹ s⁻¹. Moreover, the half-maximal effective concentration (EC50) in assay [3] came out at 107 pM.
